Experiment: yeast display, Sf9 membrane polyspecificity reagent, FACS + sequencing; frameworks hold sequencing errors
Summary of the method: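 Polyreactivity labels are assigned by the sorting gate from which each nanobody was recovered. The gates were low and high (top ~1%), set on anti-HA fluorescence for expression and streptavidin fluorescence for reagent binding. Before sorting, galactose-induced (36–48 hours) yeast display cells were stained for 1 hour at 4 °C with 10% biotinylated, detergent-solubilized Sf9 membrane reagent.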
For “QVQLVESGGGLVQAGGSLRLSCAASGSIFRRNVMGWYRQAPGKERELVAAITGSGGSTYYADSVKGRFTISRDNAKNTVYLQMNSLKPEDTAVYYCAKVPYYSRPHDYWGQGTQVTVSS”, the “polyreactivity (PSR sort gate)” value was “high polyreactivity”. For “QVQLVESGGGLVQAGGSLRLSCAASGSIFRRYAMGWYRQAPGKERELVASISSRGTRTYYADSVKGRFTISRDTAKNTVYLQMNSLKPEDTAVYYCAASYYTPYDYWGQGTQVTVSS”, the “polyreactivity (PSR sort gate)” value was “high polyreactivity”. In the case of “QVQLVESGGGLVQAGGSLRLSCAASGSIFRRYAMGWYRQAPGKERELVAVITTDGSTYYADSVKGRFTISRDNAKNTVYLQMNSLKPEDTAVYYCAADVRHYIWEYYYWGQGTQVTVSS”, the “polyreactivity (PSR sort gate)” value is reported as “low polyreactivity”. In the case of “QVQLVESGGGLVQAGGSLRLSCAASGSIFRSNAMGWYRQAPGKERELVAAISSSGGSTYYADSVKGRFTISRDNAKNTVYLQMNSLKPEDTAVYYCNTSVDRGLGYWGQGTQVTVSS”, the “polyreactivity (PSR sort gate)” value is reported as “low polyreactivity”. For “QVQLVESGGGLVQAGGSLRLSCAASGSIFRSNTMGWYRQAPGKERELVAGISYSGGSTYADSVKGRFTISRDNAKNTVYLQMNSLKPEDTAVYYCNTVYDPHTGQSDSWGQATQVTVSS”, the “polyreactivity (PSR sort gate)” value was “low polyreactivity”. With “QVQLVESGGGLVQAGGSLRLSCAASGSIFRSYAMGWYRQAPGKEREFVAAINSRSGSTYYADSVKGRFTISRDNAKNTVYFQINSLKPEDTAVYYWAVTYYTRGYGHMDYWGQGTQVTVSS” the “polyreactivity (PSR sort gate)” value was “high polyreactivity”. With “QVQLVESGGGLVQAGGSLRLSCAASGSIFRSYAMGWYRQAPGKERELVAGITSSGGSTYADSVKGRFTISRDNAKNTVYLQMNSLKPEDTAVYFCAKPGFEWLLTRLFSVSEYDYWGQGTQVTVSS” the “polyreactivity (PSR sort gate)” value was “low polyreactivity”. In the case of “QVQLVESGGGLVQAGGSLRLSCAASGSIFRSYAMGWYRQAPGKERELVARITYRGGGTYYADSVKGRVTISRDNAKNTVYLQMKSLKPEVTAVYYCAASGAFVRTRVTTADYDYWGQGTQVTVSS”, the “polyreactivity (PSR sort gate)” value is reported as “high polyreactivity”. With “QVQLVESGGGLVQAGGSLRLSCAASGSIFRSYAMGWYRQAPGKERELVASISRRGGSTYYADSVKGRFTISRDNAKNSVYLQMNSLKPEDTAVYYCAAVRYNSRVSTTPSEMYYWGQGTQVTVSS” the “polyreactivity (PSR sort gate)” value was “low polyreactivity”. For “QVQLVESGGGLVQAGGSLRLSCAASGSIFRTNAMGWYRQAPGKERELVAAITGSGGSTYYADSVKGRFTISRDNAKNTVYLQMNSLKPVDTAVYYCAADGQLPPRGILASWEFDYWGQGTQVTVSS”, the “polyreactivity (PSR sort gate)” value was “low polyreactivity”. With “QVQLVESGGGLVQAGGSLRLSCAASGSIFRTYAMGWYRQAHGKETELVAAITRSGGTTYYADSVKGRFTISRDNAKNTVYLQMNSLKPEDTAVYFCNAQGYWYKGRRRGDYWGQGTQVTVSS” the “polyreactivity (PSR sort gate)” value was “high polyreactivity”. For “QVQLVESGGGLVQAGGSLRLSCAASGSIFRVYAMGRYRQAPGKERELVATISGSAGRTYYADSVKGRFTISRDNAKNTVYLQMNSLKPEDTAVYYCAARWYKEYYWGQGTQVTVSS”, the “polyreactivity (PSR sort gate)” value was “high polyreactivity”. With “QVQLVESGGGLVQAGGSLRLSCAASGSIFRVYAMGWYRQAPGKERELVAAISKSGSSTYYADSVKGRFTISRDNAKNTVYLQMNSLKPEDTAVYYCAARRVLGEYGYWGQGTQVTVSS” the “polyreactivity (PSR sort gate)” value was “high polyreactivity”. In the case of “QVQLVESGGGLVQAGGSLRLSCAASGSIFRVYAMGWYRQAPGKERELVAAISWGGGTTYYADSVKGRFTISRDNAKNTVYLQMNSLKPEDTAVYYCNKVGVRSGARSIYVVRRYEYWGQGTQVTVSS”, the “polyreactivity (PSR sort gate)” value is reported as “high polyreactivity”. In the case of “QVQLVESGGGLVQAGGSLRLSCAASGSIFRVYAMGWYRQAPGKERELVAAISWGRGTTYYADSVKGRFTISRDNAKNTVYLQMTSLKPEDTAVYYCAAGGVGAYDYWGQGTQVTVSS”, the “polyreactivity (PSR sort gate)” value is reported as “high polyreactivity”. In the case of “QVQLVESGGGLVQAGGSLRLSCAASGSIFRWYAMGWYRKAPGKERELVARITVSGGSTYYADSVKGRFTISRDNAKNTVYLEMNSLKPEDTAVYYCNARAHYTPDGGGDYWGQGTQVTVSS”, the “polyreactivity (PSR sort gate)” value is reported as “high polyreactivity”. For “QVQLVESGGGLVQAGGSLRLSCAASGSIFRWYAMGWYRQAPGKEREFVAAISWSGTSTYYADSVKGRFTISRDNAKNTVYLQMNSLKPEDTAVYYCNALLPSSRAPDYGYWGQGTQVTVSS”, the “polyreactivity (PSR sort gate)” value was “high polyreactivity”. With “QVQLVESGGGLVQAGGSLRLSCAASGSIFRWYAMGWYRQAPGKERELVAGISSTGGSTYYADSVKGRFTISRDNAKNTVYLQMNSLKPEDTAVLYCAVVSYPSAFRRYNYWGQGTQVTVSS” the “polyreactivity (PSR sort gate)” value was “high polyreactivity”. For “QVQLVESGGGLVQAGGSLRLSCAASGSIFRYNAMGWYRQAPGKDRELVAAISSGGSTKYADSVKGRFTISRDNAKNTVYLQMNSMKPEDTAVYFCVARRARYDYWGQGTQVTVSS”, the “polyreactivity (PSR sort gate)” value was “high polyreactivity”. In the case of “QVQLVESGGGLVQAGGSLRLSCAASGSIFRYNAMGWYRQAPGKERELVAAISSGGSTKYADSVKGRFTISRDNAKKTVYLQMNSLKPEDTAVYYCVARRARYDYWGQGTQVTVSS”, the “polyreactivity (PSR sort gate)” value is reported as “high polyreactivity”. In the case of “QVQLVESGGGLVQAGGSLRLSCAASGSIFRYNAMGWYRQAPGKERELVAAITRSGGRTYYADSVKGRFTISRDNAKNTVYLQMNSLKPEDTAVYYCAAKGYTYGLTYDYWGQGTQVTVSS”, the “polyreactivity (PSR sort gate)” value is reported as “high polyreactivity”. With “QVQLVESGGGLVQAGGSLRLSCAASGSIFRYNAMGWYRQAPGKERELVAGITWGGGRTYYADSVKGRFTISRDNAKNTVYLQMNSLKPEDTAVYYCAAVIARPAVQAYLVTKYDYWGQGTQVTVSS” the “polyreactivity (PSR sort gate)” value was “high polyreactivity”. For “QVQLVESGGGLVQAGGSLRLSCAASGSIFRYYAMGWYRQAPGKEREFVAAINTNDAGTYYADSVKGRFTISRDNAKNTVYLQMNSLKPEDTAVYYCAADTGYPFWYDYWGQGTQVTVSS”, the “polyreactivity (PSR sort gate)” value was “high polyreactivity”. For “QVQLVESGGGLVQAGGSLRLSCAASGSIFRYYAMGWYRQAPGKERELVAAIRWSGGSTYYADSVKGRFTISRDNAKNTVYLQMNSLKPEDTAVYYCAARVGYRGSRQYSSYTLVDYWGQGTQVTVSS”, the “polyreactivity (PSR sort gate)” value was “high polyreactivity”. With “QVQLVESGGGLVQAGGSLRLSCAASGSIFRYYAMGWYRQAPGKERELVAAISSGTITNYADSVKGRFTISRDNAKNTVYLQMNSLKPEDTAVYYCAADTWYLGYPDYWLDYWGQGTQVTVSS” the “polyreactivity (PSR sort gate)” value was “low polyreactivity”. With “QVQLVESGGGLVQAGGSLRLSCAASGSIFRYYAMGWYRQAPGKERELVAAITGRGGSTYYADSVKGRFTISRDNAKNTVYLQMNSLKPEDTAVYYCADYIDANVHRFDYWGQGTQVTVSS” the “polyreactivity (PSR sort gate)” value was “low polyreactivity”. With “QVQLVESGGGLVQAGGSLRLSCAASGSIFRYYAMGWYRQAPGKERELVATISRDGGNTYYADSVKGRFTISRDNAKNTVYVQMNSLKPEDTAVYYCAKLGYRLSGYGYDYWGQGTQVTVSS” the “polyreactivity (PSR sort gate)” value was “high polyreactivity”. With “QVQLVESGGGLVQAGGSLRLSCAASGSIFRYYAMGWYRQAPGKERELVATITFNGGNTYYADSVKGRFTISRDNAKNTVYLQMNSLKPEDTAVYYCAATYVRRGPTRYYYWGQGTQVTVSS” the “polyreactivity (PSR sort gate)” value was “high polyreactivity”. In the case of “QVQLVESGGGLVQAGGSLRLSCAASGSIFRYYAMGWYRQAPGKERELVATITSGGSTSYADSVKGRFTISRDNAKNTVYLQMNSLKPEDTAVYYCAKRSRHNKYYYWGQGTQVTVSS”, the “polyreactivity (PSR sort gate)” value is reported as “high polyreactivity”. For “QVQLVESGGGLVQAGGSLRLSCAASGSIFRYYAMGWYRQAPGKERELVAVITRGGSTYYADSVKGRFTISRDNAKNTVYLQMNRLKPEDTAVYYCAADFWPAGLDRGYWGQGTQVTVSS”, the “polyreactivity (PSR sort gate)” value was “low polyreactivity”. In the case of “QVQLVESGGGLVQAGGSLRLSCAASGSIFRYYAMGWYRQAPGKERELVAVITSSGTSTYYADSVKGRFTISRDNAKNTVYLQMNSLKPEDTAVYYCARRSSGELRYHIYDYWGQGTQVTLSS”, the “polyreactivity (PSR sort gate)” value is reported as “low polyreactivity”. For “QVQLVESGGGLVQAGGSLRLSCAASGSIFRYYAMGWYRQAPGKESEFVASITYRGGRTYYADSVKGRFTISRDNAKNTVYLQMNSLKPEDTAVYYCAARTRAGAWTSKYHDYWGQGTQVTVSS”, the “polyreactivity (PSR sort gate)” value was “high polyreactivity”. In the case of “QVQLVESGGGLVQAGGSLRLSCAASGSIFRYYGMGWSRQAPGKERELVAAITWRGSSTYYADSVKGRFTISRDNAKNSVYLQMNSLNPEDTAVYYCAAYSASYGGYDYWGQGTQVTVSS”, the “polyreactivity (PSR sort gate)” value is reported as “high polyreactivity”. For “QVQLVESGGGLVQAGGSLRLSCAASGSIFRYYTMGWDRQAPGKERELVAAISWSGGRTYYADSVKGRFTISRDNAKNTVYLQMNSLKPEDTAVYYCAAVRPYYYPLPTVPNLPYDYWGQGTQVTVSS”, the “polyreactivity (PSR sort gate)” value was “high polyreactivity”. For “QVQLVESGGGLVQAGGSLRLSCAASGSIFRYYTMGWYRQAPGKERELVAGINRGGRTYYADSVKGRYTISRDNAKNTVYLQMNSLKPEDTAVYYCAAVTYYGFDYWGQGTQVTVSS”, the “polyreactivity (PSR sort gate)” value was “high polyreactivity”. With “QVQLVESGGGLVQAGGSLRLSCAASGSIFRYYVMGWYRQAPGKERELVAAISSGGRTYYADSVKGRFTISRDNAKNTVYLQMNSLKPEDTAVYYCAAGEPTRGDYWGQGTQVTVSS” the “polyreactivity (PSR sort gate)” value was “high polyreactivity”. In the case of “QVQLVESGGGLVQAGGSLRLSCAASGSIFRYYVMGWYRQAPGKERELVAAISTGDRTNYADSVKGRFTISRDNAKNTVYLQMNILKPEDTAVYYCNADYVVGWARLEFNYWGQGTQVTVSS”, the “polyreactivity (PSR sort gate)” value is reported as “low polyreactivity”. With “QVQLVESGGGLVQAGGSLRLSCAASGSIFRYYVMGWYRQAPGKERELVAAITKSAGSTYYADSVKGRFTISRDNAKNTVYLQMNSLKPEDTAVYYCAARRVSRGNSKFDYYWGQGTQVTVSS” the “polyreactivity (PSR sort gate)” value was “high polyreactivity”. With “QVQLVESGGGLVQAGGSLRLSCAASGSIFRYYVMGWYRQAPGKERELVASITGSGGSTYYADSLKGRFTISRDNAKNTVYLQMNSLKPEDTAVYYCAASYRMRYGYWGQGTQVTVSS” the “polyreactivity (PSR sort gate)” value was “high polyreactivity”. In the case of “QVQLVESGGGLVQAGGSLRLSCAASGSIFSDYALGWYRQAPGKERELVAAITQSGGSTYADSVKGRFTISRDNAKNTVYLQMNSLIPEDTAVYYCAADEVPGFGYPPYPWFDYWGQGTQVTVSS”, the “polyreactivity (PSR sort gate)” value is reported as “low polyreactivity”. For “QVQLVESGGGLVQAGGSLRLSCAASGSIFSENTRGWYRQAPGKERELVAAISWSGGSTNYADSVKGRFTISRDNAKNTVYLQMNSLKPEDTAVYYCFYWGQCTQVTVSS”, the “polyreactivity (PSR sort gate)” value was “low polyreactivity”. With “QVQLVESGGGLVQAGGSLRLSCAASGSIFSFYAMGWYRPAPGKERELVAAISYRGGSTYYADSVKGRFTISRDNAKNTVYIQMNSLKPVDSAVSYCAAARFPVFIQGYRMEYWGQGTQVTVSS” the “polyreactivity (PSR sort gate)” value was “low polyreactivity”. In the case of “QVQLVESGGGLVQAGGSLRLSCAASGSIFSFYAMGWYRQAPGKEMELVATISSGDNTNYADSVKGRFTISRDNAKNTVYLQMNSLKPEDNAVYYCAADAWGVDREYDYWGQGTQVTVSS”, the “polyreactivity (PSR sort gate)” value is reported as “low polyreactivity”.

— the nanobody polyreactivity screen of Harvey et al. (2022)
